The target in this test is T1, WT talin1 R12-R13-DD (murine, UniProt P26039 2138-2541).
T1 construct: talin1, murine, rod domains R12 and R13 and the dimerization domain (DD), residues 2138-2541; also called WT-R12-R13-DD; R12-R13-DD WT
Nature of the test: SEC; 100 uM talin and 100 uM Vd1 (1:1 ratio), Superdex 200 Increase 10/300 GL, room temperature (25°C). The settings on record: both partners purified. Background: Size exclusion chromatography separates by hydrodynamic size, large species first.

T1 sequence (P26039 2138-2541): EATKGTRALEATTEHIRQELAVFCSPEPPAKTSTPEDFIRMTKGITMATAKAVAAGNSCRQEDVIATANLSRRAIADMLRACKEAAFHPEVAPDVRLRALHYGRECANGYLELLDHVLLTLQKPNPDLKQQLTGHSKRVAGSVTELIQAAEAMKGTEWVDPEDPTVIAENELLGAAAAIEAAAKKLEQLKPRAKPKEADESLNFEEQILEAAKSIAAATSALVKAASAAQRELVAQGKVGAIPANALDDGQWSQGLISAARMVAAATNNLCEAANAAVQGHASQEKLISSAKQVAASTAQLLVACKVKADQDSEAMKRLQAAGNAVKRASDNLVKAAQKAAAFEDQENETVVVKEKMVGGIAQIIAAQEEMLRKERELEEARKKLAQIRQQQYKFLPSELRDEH

B1: talin-binding domain 1 of vinculin (Vd1) (domain or fragment, chicken, UniProt P12003 1-258, looked up)
chain: MPVFHTRTIESILEPVAQQISHLVIMHEEGEVDGKAIPDLTAPVSAVQAAVSNLVRVGKETVQTTEDQILKRDMPPAFIKVENACTKLVRAAQMLQADPYSVPARDYLIDGSRGILSGTSDLLLTFDEAEVRKIIRVCKGILEYLTVAEVVETMEDLVTYTKNLGPGMTKMAKMIDERQQELTHQEHRVMLVNSMNTVKELLPVLISAMKIFVTTKNTKSQGIEEALKNRNFTVEKMSAEINEIIRVLQLTSWDEDAW
notes: vinculin, chicken, domain 1 (Vd1), residues 1-258; expressed from a pET-15b plasmid; also called vinculin Vd1 domain
Turning to B1, the binding result is “binds”.

The values above are taken from publication PMC11665552, “Talin1 dysfunction is genetically linked to systemic capillary leak syndrome” (JCI Insight, 2024).
